The text below walks through data of publication PMC5737657 (Nucleic Acids Research, 2017).

B1: VapB26 antitoxin (untagged, native, co-expressed with VapC26) (natural protein)
chain: MDKTTVYLPDELKAAVKRAARQRGVSEAQVIRESIRAAVGGAKPPPRGGLYAGSEPIARRVDELLAGFGER
B2: VapC26 toxin with N-terminal (His)6 tag (native, co-expressed with VapB26) (natural protein)
chain: MIIDTSALLAYFDAAEPDHAAVSECIDSSADALVVSPYVVAELDYLVATRVGVDAELAVLRELAGGAWELANCGAAEIEQAARIVTKYQDQRIGIADAANVVLADRYRTRTILTLDRRHFSALRPIGGGRFTVIP

Test [1] concerns the target B2. The test can be described thus: crystal structure.
The target in a further test is VapB26 Y51E (Mycobacterium tuberculosis, UniProt O53778 1-71, Y51E). The test can be described thus: co-purification on a Ni2+ affinity column.

On to B1, for which, in test [1], the binding result is “binds”.
Consider B2, for which the binding result in the test with VapB26 Y51E was “binds”.
